Legend:
[1] = target: Influenza A virus matrix 1 (M1) protein with a C-terminal His6-tag (Influenza A virus A/chicken/Jiangsu/1/1998 (H9N2)); assay: SEC; […], pH 5.0, 25°C; […]
[2] = target: Influenza A virus matrix 1 (M1) protein with a C-terminal His6-tag (Influenza A virus A/chicken/Jiangsu/1/1998 (H9N2)); assay: […]; 0.2% ([…], pH 8.0, room temperature, 5 min; […]
[3] = target: Influenza A virus matrix 1 (M1) protein with a C-terminal His6-tag (Influenza A virus A/chicken/Jiangsu/1/1998 (H9N2)); assay: SEC

Measured: stoichiometry N

Influenza A virus matrix 1 (M1) protein with a C-terminal His6-tag (natural protein)
2: all assays above

From PMC3360003
